Source: US20080220446A1, “Method for Detecting and/or Removing Protein and/or Peptide Comprising a Cross-Beta Structure From an Aqueous Solution Comprising a Protein” (priority 2005, published 2008)

Target: endostatin (EntreMed, Inc.) (UniProt P39060)
Assay: SPR (Biacore), Fn F4-5-His6 immobilized, endostatin at 0-800 nM, maximum RU against concentration

Sequence of endostatin (EntreMed, Inc.) (P39060 1572-1754): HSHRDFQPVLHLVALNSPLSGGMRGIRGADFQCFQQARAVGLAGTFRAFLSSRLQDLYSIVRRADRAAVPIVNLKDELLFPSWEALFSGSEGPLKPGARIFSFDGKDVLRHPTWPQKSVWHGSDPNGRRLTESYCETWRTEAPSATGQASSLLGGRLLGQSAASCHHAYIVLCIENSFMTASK

- concentration of ligand that results in half maximum binding: 800 nM
Substance: Fn F4-5-His6 (fibronectin type I domains 4-5, expressed in S. cerevisiae) (from UniProt P02751 182-276)
